T1: マウスROBO4 (pCI−mROBO4導入細胞) (mouse, UniProt Q8C310 28-1012)
T1 construct: also called mouse ROBO4; mROBO4
T1 sequence: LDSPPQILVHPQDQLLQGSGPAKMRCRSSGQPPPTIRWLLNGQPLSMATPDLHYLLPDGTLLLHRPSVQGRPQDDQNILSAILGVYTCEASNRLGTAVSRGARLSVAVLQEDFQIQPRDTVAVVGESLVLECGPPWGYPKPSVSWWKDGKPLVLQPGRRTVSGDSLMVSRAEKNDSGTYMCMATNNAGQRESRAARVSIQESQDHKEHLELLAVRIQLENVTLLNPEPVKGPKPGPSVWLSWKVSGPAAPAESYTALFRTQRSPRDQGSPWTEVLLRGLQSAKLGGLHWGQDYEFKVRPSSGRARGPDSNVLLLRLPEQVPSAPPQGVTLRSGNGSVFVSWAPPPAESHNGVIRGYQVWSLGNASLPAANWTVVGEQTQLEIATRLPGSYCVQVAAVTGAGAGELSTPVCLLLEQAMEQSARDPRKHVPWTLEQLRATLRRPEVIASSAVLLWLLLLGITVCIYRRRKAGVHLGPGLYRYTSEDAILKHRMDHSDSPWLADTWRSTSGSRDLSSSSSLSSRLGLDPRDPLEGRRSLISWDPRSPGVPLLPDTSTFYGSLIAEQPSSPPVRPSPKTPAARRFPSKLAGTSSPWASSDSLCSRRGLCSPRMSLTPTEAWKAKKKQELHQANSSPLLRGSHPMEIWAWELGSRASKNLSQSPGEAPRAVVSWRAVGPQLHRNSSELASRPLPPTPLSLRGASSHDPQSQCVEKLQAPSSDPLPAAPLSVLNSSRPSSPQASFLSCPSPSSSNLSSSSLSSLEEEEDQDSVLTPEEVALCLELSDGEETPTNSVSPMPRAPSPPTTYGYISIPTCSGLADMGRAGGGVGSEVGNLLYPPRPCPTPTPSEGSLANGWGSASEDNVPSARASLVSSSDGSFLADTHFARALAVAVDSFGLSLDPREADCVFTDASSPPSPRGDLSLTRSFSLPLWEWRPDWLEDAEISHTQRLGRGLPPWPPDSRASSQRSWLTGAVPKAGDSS

T2: ヒトROBO2 (human)
T2 construct: also called hROBO2; pCI−hROBO2
T2 chain: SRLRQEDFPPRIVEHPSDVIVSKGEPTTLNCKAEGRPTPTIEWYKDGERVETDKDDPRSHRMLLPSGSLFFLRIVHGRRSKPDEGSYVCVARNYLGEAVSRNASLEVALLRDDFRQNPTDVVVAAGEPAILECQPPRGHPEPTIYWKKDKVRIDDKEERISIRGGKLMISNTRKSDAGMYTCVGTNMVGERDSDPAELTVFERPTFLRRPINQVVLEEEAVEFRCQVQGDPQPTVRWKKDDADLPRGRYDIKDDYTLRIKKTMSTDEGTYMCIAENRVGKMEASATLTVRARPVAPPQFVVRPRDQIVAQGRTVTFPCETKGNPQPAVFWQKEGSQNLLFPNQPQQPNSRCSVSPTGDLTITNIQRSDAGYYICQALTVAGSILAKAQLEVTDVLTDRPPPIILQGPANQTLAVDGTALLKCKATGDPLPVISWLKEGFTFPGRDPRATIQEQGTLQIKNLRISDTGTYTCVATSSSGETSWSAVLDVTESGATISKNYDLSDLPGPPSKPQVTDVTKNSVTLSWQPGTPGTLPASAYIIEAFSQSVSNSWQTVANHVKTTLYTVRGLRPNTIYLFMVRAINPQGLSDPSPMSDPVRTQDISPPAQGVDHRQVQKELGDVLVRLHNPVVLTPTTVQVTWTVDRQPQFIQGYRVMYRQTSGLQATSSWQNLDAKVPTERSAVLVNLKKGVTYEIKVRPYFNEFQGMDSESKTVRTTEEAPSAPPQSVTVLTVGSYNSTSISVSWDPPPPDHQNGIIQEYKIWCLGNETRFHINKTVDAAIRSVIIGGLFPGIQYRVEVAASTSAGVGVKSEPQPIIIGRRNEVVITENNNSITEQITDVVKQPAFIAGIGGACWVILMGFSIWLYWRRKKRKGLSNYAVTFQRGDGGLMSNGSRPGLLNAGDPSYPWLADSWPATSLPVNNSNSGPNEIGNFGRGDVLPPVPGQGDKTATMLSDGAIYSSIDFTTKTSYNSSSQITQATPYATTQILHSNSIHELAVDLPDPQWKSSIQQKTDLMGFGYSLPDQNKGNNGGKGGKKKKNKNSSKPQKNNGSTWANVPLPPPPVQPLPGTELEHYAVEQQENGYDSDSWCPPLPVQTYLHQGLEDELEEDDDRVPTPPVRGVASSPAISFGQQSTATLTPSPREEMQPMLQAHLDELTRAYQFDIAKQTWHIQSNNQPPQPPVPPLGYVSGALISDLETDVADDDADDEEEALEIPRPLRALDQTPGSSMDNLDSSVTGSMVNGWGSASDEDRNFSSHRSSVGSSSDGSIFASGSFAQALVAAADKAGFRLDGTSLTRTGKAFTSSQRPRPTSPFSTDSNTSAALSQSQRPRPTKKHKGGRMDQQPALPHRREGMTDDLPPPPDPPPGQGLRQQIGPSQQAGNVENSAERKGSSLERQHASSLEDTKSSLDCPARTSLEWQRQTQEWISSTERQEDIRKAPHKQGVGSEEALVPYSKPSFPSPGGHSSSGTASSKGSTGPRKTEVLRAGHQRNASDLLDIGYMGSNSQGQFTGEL


How the values were obtained:
[1] = target: T1, マウスROBO4 (pCI−mROBO4導入細胞); experiment: flow cytometry, transfected HEK293 cells
ヒトROBO2 = target: T2, ヒトROBO2; experiment: flow cytometry, transfected HEK293 cells

Binder	binding result [1]	binding result (ヒトROBO2)
ヒト化MAb1抗体 H−2143 (antibody, human IgG2, kappa, V domains shown, Humanised IgG2 / kappa; also called H-2143; hMAb1-H4 / hMAb1-L2) VH: EVQLVESGGGLVQPGGSLRLSCAASGFTFSTYAMSWVRQAPGKRLEWVATISQGGTYTYYPDSVKGRFTISRDNAKNTLYLQMNSLRAEDTAVYYCARLIYYDYLDYWGQGTLVTVSS VL: DIVMTQSPLSLPVTLGEPASISCRSSQSLENENKNLYLNWYLQKPGQSPQLLIYRVSNRFSGVPDRFSGSGSGTDFTLKISRVEAEDVGVYYCLQVTHVPWTFGPGTKVDIKR	no binding (tested: 10 μg/mL (method of 4)-3-2))	no binding (tested: 10 μg/mL (method of 4)-4-2))
ヒト化MAb1抗体 H−2140 (antibody, human IgG2, kappa, V domains shown, Humanised IgG2 / kappa; also called H-2140; hMAb1-H4 / hMAb1-L1) VH: EVQLVESGGGLVQPGGSLRLSCAASGFTFSTYAMSWVRQAPGKRLEWVATISQGGTYTYYPDSVKGRFTISRDNAKNTLYLQMNSLRAEDTAVYYCARLIYYDYLDYWGQGTLVTVSS VL: DIVMTQSPLSLPVTLGEPASISCRSSQSLENSNGNTYLNWYLQKPGQSPQLLIYRVSNRFSGVPDRFSGSGSGTDFTLKISRVEAEDVGVYYCLQVTHVPWTFGPGTKVDIKR	no binding (tested: 10 μg/mL (method of 4)-3-2))	no binding (tested: 10 μg/mL (method of 4)-4-2))
ヒト化MAb1抗体 H−1143 (antibody, human IgG2, kappa, V domains shown, Humanised IgG2 / kappa; also called H-1143; hMAb1-H2 / hMAb1-L2) VH: EVQLVESGGGLVQPGGSLRLSCAASGFTFSTYAMSWVRQAPGKGLEWVATISQGGTYTYYPDSVKGRFTISRDNAKNTLYLQMNSLRAEDTAVYYCARLIYYDYLDYWGQGTLVTVSS VL: DIVMTQSPLSLPVTLGEPASISCRSSQSLENENKNLYLNWYLQKPGQSPQLLIYRVSNRFSGVPDRFSGSGSGTDFTLKISRVEAEDVGVYYCLQVTHVPWTFGPGTKVDIKR	no binding (tested: 10 μg/mL (method of 4)-3-2))	no binding (tested: 10 μg/mL (method of 4)-4-2))
抗ROBO4マウスモノクローナル抗体 MAb1 (antibody, V domains shown, Mouse IgG1 (gamma 1) / kappa from a hybridoma; The constant regions are not in the listing; also called MAb1) VH: EVQLVESGGGLVKPGGSLKLSCAASGFTFSTYAMSWVRQTPEKRLEWVATISNGGTYTYYPDSVKGRFTISRDNAENTLYLQMSSLRSEDTAMYFCARLIYYDYLDYWGHGTTLTVSS VL: DAVMTQTPLSLPVSLGDQASISCRSSQSLENSNGNTYLNWYFQKPGQSPQLLIYRVSNRFSGVLDRFSGSGSGTDFTLKISRVEAEDFGVYFCLQVTHVPWTFGGGTKLEIKR	no binding (tested: 10 μg/mL)	no binding (tested: 10 μg/mL)

Source: patent publication JP2014141434A (dated 2014)
